# Experimental data reported in article PMC6158211.
# B1: 3xFlag-UBL3 (wild-type ubiquitin-like 3/membrane-anchored Ub-fold protein) [not stated] / ATXN10 [human (endogenous in MDA-MB-231)] (parent)
# chain 1: MSSNVPADMINLRLILVSGKTKEFLFSPNDSASDIAKHVYDNWPMDWEEEQVSSPNILRLIYQGRFLHGNVTLGALKLPFGKTTVMHLVARETLPEPNSQGQRNREKTGESNCCVIL
# chain 2: MAAPRPPPARLSGVMVPAPIQDLEALRALTALFKEQRNRETAPRTIFQRVLDILKKSSHAVELACRDPSQVENLASSLQLITECFRCLRNACIECSVNQNSIRNLDTIGVAVDLILLFRELRVEQESLLTAFRCGLQFLGNIASRNEDSQSIVWVHAFPELFLSCLNHPDKKIVAYSSMILFTSLNHERMKELEENLNIAIDVIDAYQKHPESEWPFLIITDLFLKSPELVQAMFPKLNNQERVTLLDLMIAKITSDEPLTKDDIPVFLRHAELIASTFVDQCKTVLKLASEEPPDDEEALATIRLLDVLCEMTVNTELLGYLQVFPGLLERVIDLLRVIHVAGKETTNIFSNCGCVRAEGDISNVANGFKSHLIRLIGNLCYKNKDNQDKVNELDGIPLILDNCNISDSNPFLTQWVIYAIRNLTEDNSQNQDLIAKMEEQGLADASLLKKVGFEVEKKGEKLILKSTRDTPKP
# B2: 3xFlag-UBL3 (wild-type ubiquitin-like 3/membrane-anchored Ub-fold protein) [not stated] / TUBB4A [human (endogenous in MDA-MB-231)] (parent)
# chain 1: B1 chain 1
# chain 2: MREIVHLQAGQCGNQIGAKFWEVISDEHGIDPTGTYHGDSDLQLERINVYYNEATGGNYVPRAVLVDLEPGTMDSVRSGPFGQIFRPDNFVFGQSGAGNNWAKGHYTEGAELVDAVLDVVRKEAESCDCLQGFQLTHSLGGGTGSGMGTLLISKIREEFPDRIMNTFSVVPSPKVSDTVVEPYNATLSVHQLVENTDETYCIDNEALYDICFRTLKLTTPTYGDLNHLVSATMSGVTTCLRFPGQLNADLRKLAVNMVPFPRLHFFMPGFAPLTSRGSQQYRALTVPELTQQMFDAKNMMAACDPRHGRYLTVAAVFRGRMSMKEVDEQMLSVQSKNSSYFVEWIPNNVKTAVCDIPPRGLKMAATFIGNSTAIQELFKRISEQFTAMFRRKAFLHWYTGEGMDEMEFTEAESNMNDLVSEYQQYQDATAEEGEFEEEAEEEVA
# Variants of: B1
# Assay: Flag antibody-bead pull-down, on-bead digestion, LC-MS/MS label-free quantification
# Conditions: with ATXN10 [human (endogenous in MDA-MB-231)]; lysates of MDA-MB-231 cells; triplicate pull-downs; read off a plot
row,Variant,screen value [log2]
1,chain 1 C113A C114A,5.1

# Variants of: B2
# Assay: as above
# Conditions: with TUBB4A [human (endogenous in MDA-MB-231)]; lysates of MDA-MB-231 cells; triplicate pull-downs; read off a plot
row,Variant,screen value [log2]
1,chain 1 C113A C114A,3.2
